According to patent publication US20260272979A1 (CHINEO MEDICAL TECHNOLOGY, published 2026):
One block for each molecule: values may come before it.

B4: Seq No. 2-RFc (PD-1 variant PD1_56# fused to rabbit IgG Fc) (Fc fusion)
chain: PGWFLDSPDRPWNPPTFSPALLVVTEGDNATFTCSFSNTSESFVLNWYRMSPSNQTDKLAAFPEDRSQPGQDCRFRVTQLPNGRDFHMSVVRARRNDSGTYLCGAISLSTPVWIKESLRAELRVTERRAEVPTAH
notes: Signal peptide 1-20 left out; also called variant 1; Mut1/56#; not shown: rabbit IgG Fc (RFc) of vector pcDNA3.4-RFc

Key:
[1] = biological target: wild-type human PD-1 (hPD-1) on cells (human); assay: cell-based or functional assay
[2] = biological target: Seq No. 6-RFc (PD-1 variant PD1_56#-16 fused to rabbit IgG Fc) (human; rabbit) (UniProt Q15116); assay: SPR Biacore T200
[3] = biological target: Seq No. 2-RFc (PD-1 variant PD1_56# fused to rabbit IgG Fc) (human; rabbit) (UniProt Q15116); assay: SPR Biacore T200
[4] = biological target: Seq No. 3-RFc (PD-1 variant PD1_56#-2 fused to rabbit IgG Fc) (human; rabbit) (UniProt Q15116); assay: SPR Biacore T200
[5] = biological target: Seq No. 1-RFc (wild-type PD-1 fused to rabbit IgG Fc) (human; rabbit) (UniProt Q15116); assay: SPR Biacore T200
[6] = biological target: Seq No. 7-RFc (PD-1 variant PD1_56#-108 fused to rabbit IgG Fc) (human; rabbit) (UniProt Q15116); assay: SPR Biacore T200
[7] = biological target: Seq No. 4-RFc (PD-1 variant PD1_56#-3 fused to rabbit IgG Fc) (human; rabbit) (UniProt Q15116); assay: SPR Biacore T200
[8] = biological target: Seq No. 5-RFc (PD-1 variant PD1_56#-15 fused to rabbit IgG Fc) (human; rabbit) (UniProt Q15116); assay: SPR Biacore T200
[9] = biological target: Seq No. 6-RFc (PD-1 variant PD1_56#-16 fused to rabbit IgG Fc) (human; rabbit) (UniProt Q15116); assay: SPR Biacore T200; antibody stationary phase
[10] = biological target: Seq No. 2-RFc (PD-1 variant PD1_56# fused to rabbit IgG Fc) (human; rabbit) (UniProt Q15116); assay: SPR Biacore T200; antibody stationary phase
[11] = biological target: Seq No. 3-RFc (PD-1 variant PD1_56#-2 fused to rabbit IgG Fc) (human; rabbit) (UniProt Q15116); assay: SPR Biacore T200; antibody stationary phase
[12] = biological target: Seq No. 1-RFc (wild-type PD-1 fused to rabbit IgG Fc) (human; rabbit) (UniProt Q15116); assay: SPR Biacore T200; antibody stationary phase
[13] = biological target: Seq No. 7-RFc (PD-1 variant PD1_56#-108 fused to rabbit IgG Fc) (human; rabbit) (UniProt Q15116); assay: SPR Biacore T200; antibody stationary phase
[14] = biological target: Seq No. 4-RFc (PD-1 variant PD1_56#-3 fused to rabbit IgG Fc) (human; rabbit) (UniProt Q15116); assay: SPR Biacore T200; antibody stationary phase
[15] = biological target: Seq No. 5-RFc (PD-1 variant PD1_56#-15 fused to rabbit IgG Fc) (human; rabbit) (UniProt Q15116); assay: SPR Biacore T200; antibody stationary phase
[16] = biological target: T1, PD-L1 fuse-expressed with an Fc derived from human IgG1 (human, UniProt Q9NZQ7 19-239); assay: flow cytometry, human T cells
T1 construct: Bought reagent; also called PD-L1-Fc; hPD-L1-Fc; not shown: Fc of human IgG1
T1 sequence (Q9NZQ7 19-239 limits assumed): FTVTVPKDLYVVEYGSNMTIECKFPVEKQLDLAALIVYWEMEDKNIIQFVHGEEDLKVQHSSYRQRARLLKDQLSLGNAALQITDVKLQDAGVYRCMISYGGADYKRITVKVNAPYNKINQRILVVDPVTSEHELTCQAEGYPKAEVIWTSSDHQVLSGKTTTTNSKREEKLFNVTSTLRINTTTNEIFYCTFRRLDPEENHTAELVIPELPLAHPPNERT

[17] = biological target: T2, PD-L2 fuse-expressed with an Fc derived from human IgG1 (human, UniProt Q9BQ51 20-219, limits assumed); assay: flow cytometry, human T cells
T2 construct: Bought reagent; also called hPD-L2-Fc; not shown: Fc of human IgG1
T2 sequence (looked up): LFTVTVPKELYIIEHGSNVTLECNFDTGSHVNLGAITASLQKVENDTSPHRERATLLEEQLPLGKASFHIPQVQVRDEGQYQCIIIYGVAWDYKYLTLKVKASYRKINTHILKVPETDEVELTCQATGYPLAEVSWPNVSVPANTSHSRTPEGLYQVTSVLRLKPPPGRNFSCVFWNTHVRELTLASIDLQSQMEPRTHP

[18] = biological target: B4; assay: SPR Biacore T200
[19] = biological target: T1, PD-L1 fuse-expressed with an Fc derived …; assay: SPR Biacore T200
[20] = biological target: T2, PD-L2 fuse-expressed with an Fc derived …; assay: SPR Biacore T200
[21] = biological target: T1, PD-L1 fuse-expressed with an Fc derived …; assay: SPR Biacore T200; PD1-RFc mobile phase
[22] = biological target: T2, PD-L2 fuse-expressed with an Fc derived …; assay: SPR Biacore T200; PD1-RFc mobile phase

Molecule: B4
Kd [19]: 0.457 nM
Kd [20]: 1.17 nM
koff [21]: 0.00129 s⁻¹
kon [21]: 2.82e+06 M⁻¹ s⁻¹
koff [22]: 0.00657 s⁻¹
kon [22]: 5.6e+06 M⁻¹ s⁻¹

B5: Seq No. 3-RFc (PD-1 variant PD1_56#-2 fused to rabbit IgG Fc) (Fc fusion)
chain: PGWFLDSPDRPWNPPTFSPALLVVTEGDNATFTCSFSNTSESFVLNWYRMSPSNQTDKLAAFPFLFNLPGQDCRFRVTQLPNGRDFHMSVVRARRNDSGTYLCGAISLSTPVWIKESLRAELRVTERRAEVPTAH
notes: Signal peptide 1-20 left out; several higher bands in non-reducing SDS-PAGE; also called variant 2; Mut2/56#-2; not shown: rabbit IgG Fc (RFc) of vector pcDNA3.4-RFc
Kd [19]: 4.12 nM
Kd [20]: 0.00296 nM
koff [22]: 1.25e-05 s⁻¹
kon [22]: 4.22e+06 M⁻¹ s⁻¹

B6: Seq No. 5-RFc (PD-1 variant PD1_56#-15 fused to rabbit IgG Fc) (Fc fusion)
chain: PGWFLDSPDRPWNPPTFSPALLVVTEGDNATFTCSFSNTSESFVLNWYRMSPSNQTDKLAAFPEDFRNCTQDCRFRVTQLPNGRDFHMSVVRARRNDSGTYLCGAISLSTPVWIKESLRAELRVTERRAEVPTAH
notes: Signal peptide 1-20 left out; also called variant 4; Mut4/56#-15; not shown: rabbit IgG Fc (RFc) of vector pcDNA3.4-RFc
Kd [19]: 2.25 nM
Kd [20]: 4.53 nM
koff [21]: 0.00343 s⁻¹
kon [21]: 1.52e+06 M⁻¹ s⁻¹
koff [22]: 0.0096 s⁻¹
kon [22]: 2.12e+06 M⁻¹ s⁻¹

B7: Seq No. 4-RFc (PD-1 variant PD1_56#-3 fused to rabbit IgG Fc) (Fc fusion)
chain: PGWFLDSPDRPWNPPTFSPALLVVTEGDNATFTCSFSNTSESFVLNWYRMSPSNQTDKLAAFPWMFCFPGQDCRFRVTQLPNGRDFHMSVVRARRNDSGTYLCGAISLSTPVWIKESLRAELRVTERRAEVPTAH
notes: Signal peptide 1-20 left out; several higher bands in non-reducing SDS-PAGE; also called variant 3; Mut3/56#-3; not shown: rabbit IgG Fc (RFc) of vector pcDNA3.4-RFc
Kd [19]: 39.6 nM
Kd [20]: 296 nM
koff [21]: 0.00266 s⁻¹
kon [21]: 67400 M⁻¹ s⁻¹
koff [22]: 0.0019 s⁻¹
kon [22]: 6420 M⁻¹ s⁻¹

B9: Seq No. 6-RFc (PD-1 variant PD1_56#-16 fused to rabbit IgG Fc) (Fc fusion)
chain: PGWFLDSPDRPWNPPTFSPALLVVTEGDNATFTCSFSNTSESFVLNWYRMSPSNQTDKLAAFPEDFFTVSQDCRFRVTQLPNGRDFHMSVVRARRNDSGTYLCGAISLSTPVWIKESLRAELRVTERRAEVPTAH
notes: Signal peptide 1-20 left out; several higher bands in non-reducing SDS-PAGE; also called variant 5; PD1 variant 5 (56#-16); not shown: rabbit IgG Fc (RFc) of vector pcDNA3.4-RFc
Kd [19]: 0.657 nM
Kd [20]: 0.798 nM
koff [21]: 0.00153 s⁻¹
kon [21]: 2.32e+06 M⁻¹ s⁻¹
koff [22]: 0.00483 s⁻¹
kon [22]: 6.05e+06 M⁻¹ s⁻¹

Continued, values first:

IL-2 concentration (pg/ml) at 0.8 nM [1]: 432 pg/mL
IL-2 concentration (pg/ml) at 1.6 nM [1]: 440 pg/mL
IL-2 concentration (pg/ml) at 3.2 nM [1]: 440 pg/mL
IL-2 concentration (pg/ml) at 6.4 nM [1]: 56.1 pg/mL
IL-2 concentration (pg/ml) at 12.8 nM [1]: 36.9 pg/mL
IL-2 concentration (pg/ml) at 25.6 nM [1]: 47.7 pg/mL
IL-2 concentration (pg/ml) at 51.2 nM [1]: 80.5 pg/mL
IL-2 concentration (pg/ml) at 102.4 nM [1]: 126 pg/mL
Kd [2]: 0.315 nM
Kd [3]: 0.085 nM
Kd [4]: 1.78 nM
Kd [5]: 0.0135 nM
Kd [6]: 0.0492 nM
Kd [7]: 2.94 nM
Kd [8]: 0.567 nM
koff [9]: 0.000836 s⁻¹
kon [9]: 2.66e+06 M⁻¹ s⁻¹
koff [10]: 0.000174 s⁻¹
kon [10]: 2.05e+06 M⁻¹ s⁻¹
koff [11]: 0.00105 s⁻¹
kon [11]: 588000 M⁻¹ s⁻¹
koff [12]: 4.21e-05 s⁻¹
kon [12]: 3.12e+06 M⁻¹ s⁻¹
koff [13]: 0.000109 s⁻¹
kon [13]: 2.21e+06 M⁻¹ s⁻¹
koff [14]: 0.00203 s⁻¹
kon [14]: 691000 M⁻¹ s⁻¹
koff [15]: 0.0003 s⁻¹
kon [15]: 530000 M⁻¹ s⁻¹
Molecule: Tilelizumab (antibody)

binding result [16]: binds
binding result [17]: binds
B1: PD-1 variant PD1_56#-16 on cells (receptor)
chain: PGWFLDSPDRPWNPPTFSPALLVVTEGDNATFTCSFSNTSESFVLNWYRMSPSNQTDKLAAFPEDFFTVSQDCRFRVTQLPNGRDFHMSVVRARRNDSGTYLCGAISLSTPVWIKESLRAELRVTERRAEVPTAHPSPSPRPAGQFQTLVVGVVGGLLGSLVLLVWVLAVIRSKRSRLLHSDYMNMTPRRPGPTRKHYQPYAPPRDFAAYRS
notes: On 293T cells and human T cells, from pLV2-PD1-CD28; signal peptide 1-20 left out; also called Mut5

binding result [16]: binds
binding result [17]: binds
B2: PD-1 variant PD1_56#-108 on cells (receptor)
chain: PGWFLDSPDRPWNPPTFSPALLVVTEGDNATFTCSFSNTSESFVLNWYRMSPSNQTDKLAAFPEDRINRSQDCRFRVTQLPNGRDFHMSVVRARRNDSGTYLCGAISLSTPVWIKESLRAELRVTERRAEVPTAHPSPSPRPAGQFQTLVVGVVGGLLGSLVLLVWVLAVIRSKRSRLLHSDYMNMTPRRPGPTRKHYQPYAPPRDFAAYRS
notes: On 293T cells and human T cells, from pLV2-PD1-CD28; signal peptide 1-20 left out; also called Mut6

Kd [18]: 0.395 nM
B3: Toripalimab (antibody, V domains shown)
VH: QGQLVQSGAEVKKPGASVKVSCKASGYTFTDYEMHWVRQAPIHGLEWIGVIESETGGTAYNQKFKGRVTITADKSTSTAYMELSSLRSEDTAVYYCAREGITTVATTYYWYFDVWGQGTTVTVSS
VL: DVVMTQSPLSLPVTLGQPASISCRSSQSIVHSNGNTYLEWYLQKPGQSPQLLIYKVSNRFSGVPDRFSGSGSGTDFTLKISRVEAEDVGVYYCFQGSHVPLTFGQGTKLEIKR

Kd [19]: 0.384 nM
Kd [20]: 0.336 nM
koff [21]: 0.000771 s⁻¹
kon [21]: 2.01e+06 M⁻¹ s⁻¹
koff [22]: 0.00356 s⁻¹
kon [22]: 1.06e+07 M⁻¹ s⁻¹
B8: Seq No. 7-RFc (PD-1 variant PD1_56#-108 fused to rabbit IgG Fc) (Fc fusion)
chain: PGWFLDSPDRPWNPPTFSPALLVVTEGDNATFTCSFSNTSESFVLNWYRMSPSNQTDKLAAFPEDRINRSQDCRFRVTQLPNGRDFHMSVVRARRNDSGTYLCGAISLSTPVWIKESLRAELRVTERRAEVPTAH
notes: Signal peptide 1-20 left out; also called variant 6; not shown: rabbit IgG Fc (RFc) of vector pcDNA3.4-RFc
